# From paper PMC9281127
# Target: His-tagged PD-L1 (programmed death-ligand 1) (UniProt Q9NZQ7)
# Assay: co-immunoprecipitation (IP: His, IB: Flag)
# Details: co-transfected plasmids, parent: 1.0
# Sequence of UniProt Q9NZQ7 (Q9NZQ7 19-290): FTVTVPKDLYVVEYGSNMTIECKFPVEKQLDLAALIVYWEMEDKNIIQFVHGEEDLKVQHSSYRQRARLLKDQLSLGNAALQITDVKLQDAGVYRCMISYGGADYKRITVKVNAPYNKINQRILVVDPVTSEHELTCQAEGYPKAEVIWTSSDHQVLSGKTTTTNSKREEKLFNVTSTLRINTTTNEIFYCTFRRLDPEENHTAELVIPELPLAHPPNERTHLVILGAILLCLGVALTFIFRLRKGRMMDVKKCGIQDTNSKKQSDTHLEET
substance,measurement,setting,value
Flag-tagged ZG16 (zymogen granule protein 16) (from UniProt O60844) K36A; R37A; K79A; R53A; R55A,ratio to parent,HCT116 cells,0.6
same,ratio to parent,SW480 cells,0.5
